{"source": "patent US20220411523A1", "about": "(HEFEI HANKEMAB BIOTECHNOLOGY, published 2022)", "binders": {"B1": {"name": "Hanke10F4 (antibody, human IgG4 S228P, kappa, V domains shown)", "VH": "QVQLQESGPGLVKPSETLSITCTVSGSSLTSYGVHWVRQPPGKGLEGLGVIWPGGSTNYNSALMSRLTISKDNSKSQVSLKMSSLTAADTAMYYCARVTGTWYFDVWGQGTTVTVSS", "VL": "DIQMTQSPSSLSASLGDRVTISCSASQGISNYLNWYQQKPDGTVKLLIYYTSTLHSGVPSRFSGSGSGTDFTLTISSLQPEDVATYYCQQYSKLPWTFGGGTKLEIKR", "notes": "Heavy chain type IgG4, light chain kappa; Humanized from hybridoma antibody 37G10F4, transformed from scFvB60103; also called humanized anti-human 4-1BB antibody Hanke10F4; Hanke10F4 monoclonal antibody"}, "B2": {"name": "HKB6 (antibody, V domains shown)", "VH": "QVQLKESGPGLVAPSQSLSITCTVSGFSLTTYDISWIRQPPGKGLEWLGVIWTGGGTNYNSTFMSRLSINKDNSKSQVFLKMNSLQTDDTAIYYCVRVDYWGQGTSVTVSS", "VL": "DVVMTQTPLSLPVSLGDQASISCRSSQSLVHSNGNTYLHWFLQKPGQSPKLLIYKVSNRFPGVPDRFSGSGSGTDFTLKISRVEAEDLGVYFCSQNTHVPWTFGGGTKLEIKR"}}, "key": {"[1]": {"biological_target": "T1, human 4-1BB (SEQ ID No.5), coated on the ELISA plate (human, UniProt Q07011 24-186, limits assumed)", "T1 construct": "also called CD137", "T1 sequence (Q07011 24-186 limits assumed)": "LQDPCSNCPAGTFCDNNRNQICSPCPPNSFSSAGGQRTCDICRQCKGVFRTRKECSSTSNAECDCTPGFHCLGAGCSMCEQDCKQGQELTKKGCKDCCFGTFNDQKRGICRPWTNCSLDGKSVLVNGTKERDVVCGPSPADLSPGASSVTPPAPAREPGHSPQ", "assay": "ELISA, coated human 4-1BB"}, "[2]": {"biological_target": "T2, monkey 4-1BB (Cy4-1BB) (SEQ ID No.6), coated on the ELISA plate (monkey, UniProt Q07011 24-186 (human entry), limits assumed)", "T2 chain": "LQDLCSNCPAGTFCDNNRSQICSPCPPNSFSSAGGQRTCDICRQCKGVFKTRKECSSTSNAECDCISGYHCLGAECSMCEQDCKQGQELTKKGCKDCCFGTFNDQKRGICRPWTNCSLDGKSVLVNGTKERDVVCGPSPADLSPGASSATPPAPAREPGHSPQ", "assay": "ELISA, coated monkey 4-1BB"}, "[3]": {"biological_target": "T3, monkey 4-1BB on the cell membrane surface of CHO-K1 cells (monkey, UniProt Q07011 24-255 (human entry))", "T3 construct": "also called CHO-K1-cy4-1BB", "T3 chain": "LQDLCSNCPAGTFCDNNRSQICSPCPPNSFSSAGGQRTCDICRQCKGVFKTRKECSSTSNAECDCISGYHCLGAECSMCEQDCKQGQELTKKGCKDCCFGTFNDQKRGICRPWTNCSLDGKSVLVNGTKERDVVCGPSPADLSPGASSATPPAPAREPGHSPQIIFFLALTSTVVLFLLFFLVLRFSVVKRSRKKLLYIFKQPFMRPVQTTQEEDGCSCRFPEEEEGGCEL", "assay": "FACS, CHO-K1-cy4-1BB cells"}, "[4]": {"biological_target": "T4, human 4-1BB full length, on the cell surface (human, UniProt Q07011 24-255)", "T4 construct": "also called CHO-K1-hu4-1BB; WT (Human 4-1BB full length, Expi293 transient)", "assay": "FACS, CHO-K1-hu4-1BB cells"}, "[5]": {"biological_target": "T4, human 4-1BB full length, on the cell …", "assay": "FACS, CHO-K1-hu4-1BB cells", "remark": "listed apart in the source"}, "[6]": {"biological_target": "T5, h4-1BB-His antigen (Acro company, product number: Q07011-1) (human, UniProt Q07011 24-186)", "T5 construct": "Q07011-1 is printed as a product number; not shown: His tag", "T5 sequence (Q07011 24-186, one chain of several)": "as the sequence (Q07011 24-186 limits assumed) above", "assay": "BLI (Fortebio), h4-1BB-His"}, "[7]": {"biological_target": "T4, human 4-1BB full length, on the cell …", "assay": "FACS competition, CHO-K1-hu4-1BB; labelled Bio-4-1BBL 2 µg/ml fixed, competitor varied"}, "[8]": {"biological_target": "T4, human 4-1BB full length, on the cell …", "assay": "FACS competition, CHO-K1-hu4-1BB; labelled Bio-Hanke10F4 1.5 µg/ml fixed, competitor varied"}, "[9]": {"biological_target": "T4, human 4-1BB full length, on the cell …", "assay": "FACS competition, CHO-K1-hu4-1BB; labelled Bio-Hanke10F4 1.5 µg/ml fixed, competitor varied", "remark": "listed apart in the source"}, "[10]": {"biological_target": "T4, human 4-1BB full length, on the cell …", "assay": "FACS (MFI) on cells transiently transfected with human 4-1BB WT, antibody titrated from about 0.04 to 10 µg/ml"}, "[11]": {"biological_target": "T6, human 4-1BB N42R, on the cell surface (human, UniProt Q07011 24-255)", "T6 construct": "Point mutant of human 4-1BB on transiently transfected cells", "assay": "FACS (MFI) on cells transiently transfected with human 4-1BB N42R, antibody titrated from about 0.04 to 10 µg/ml"}, "[12]": {"biological_target": "T7, human 4-1BB I132R, on the cell surface (human, UniProt Q07011 24-255)", "T7 construct": "Point mutant of human 4-1BB on transiently transfected cells", "assay": "FACS (MFI) on cells transiently transfected with human 4-1BB I132R, antibody titrated from about 0.04 to 10 µg/ml"}, "[13]": {"biological_target": "T8, human 4-1BB M101R, on the cell surface (human, UniProt Q07011 24-255)", "T8 construct": "Point mutant of human 4-1BB on transiently transfected cells", "assay": "FACS (MFI) on cells transiently transfected with human 4-1BB M101R, antibody titrated from about 0.04 to 10 µg/ml"}}, "note": "Like-named read-outs stand apart in the source and are kept apart here.", "data": [{"binder": "B1", "values": [{"measurement": "EC50", "setting": "[1]", "result": 0.0186, "unit": "µg/mL"}, {"measurement": "EC50", "setting": "[2]", "result": 0.0267, "unit": "µg/mL"}, {"measurement": "EC50", "setting": "[3]", "result": 1.81, "unit": "µg/mL"}, {"measurement": "EC50", "setting": "[4]", "result": 1.77, "unit": "µg/mL"}, {"measurement": "EC50", "setting": "[5]", "result": 1.6, "unit": "µg/mL"}, {"measurement": "Kd", "setting": "[6]", "result": 13.9, "unit": "nM"}, {"measurement": "koff", "setting": "[6]", "result": 0.00241, "unit": "s⁻¹"}, {"measurement": "kon", "setting": "[6]", "result": 173000, "unit": "M⁻¹ s⁻¹"}, {"measurement": "FACS signal of Bio-4-1BBL at (B:A) Ratio 0.03906", "setting": "[7]", "result": 7700}, {"measurement": "FACS signal of Bio-4-1BBL at (B:A) Ratio 0.15625", "setting": "[7]", "result": 7460}, {"measurement": "FACS signal of Bio-4-1BBL at (B:A) Ratio 0.625", "setting": "[7]", "result": 6920}, {"measurement": "FACS signal of Bio-4-1BBL at (B:A) Ratio 2.5", "setting": "[7]", "result": 5860}, {"measurement": "FACS signal of Bio-4-1BBL at (B:A) Ratio 10", "setting": "[7]", "result": 4310}, {"measurement": "FACS signal of Bio-4-1BBL at (B:A) Ratio 40", "setting": "[7]", "result": 3510}, {"measurement": "FACS signal of Bio-Hanke10F4 at (B:A) Ratio 0.058593", "setting": "[8]", "result": 7260}, {"measurement": "FACS signal of Bio-Hanke10F4 at (B:A) Ratio 0.23437", "setting": "[8]", "result": 6840}, {"measurement": "FACS signal of Bio-Hanke10F4 at (B:A) Ratio 0.9375", "setting": "[8]", "result": 5000}, {"measurement": "FACS signal of Bio-Hanke10F4 at (B:A) Ratio 3.75", "setting": "[8]", "result": 1740}, {"measurement": "FACS signal of Bio-Hanke10F4 at (B:A) Ratio 15", "setting": "[8]", "result": 635}, {"measurement": "FACS signal of Bio-Hanke10F4 at (B:A) Ratio 60", "setting": "[8]", "result": 230}, {"measurement": "FACS signal of Bio-Hanke10F4 at (B:A) Ratio 0.05859375", "setting": "[9]", "result": 7260}, {"measurement": "FACS signal of Bio-Hanke10F4 at (B:A) Ratio 0.234375", "setting": "[9]", "result": 6840}, {"measurement": "FACS signal of Bio-Hanke10F4 at (B:A) Ratio 0.9375", "setting": "[9]", "result": 5000}, {"measurement": "FACS signal of Bio-Hanke10F4 at (B:A) Ratio 3.75", "setting": "[9]", "result": 1740}, {"measurement": "FACS signal of Bio-Hanke10F4 at (B:A) Ratio 15", "setting": "[9]", "result": 635}, {"measurement": "FACS signal of Bio-Hanke10F4 at (B:A) Ratio 60", "setting": "[9]", "result": 230}, {"measurement": "EC50 (read off the curve)", "setting": "[10]", "result": "~0.7", "unit": "µg/mL"}, {"measurement": "EC50 (read off the curve)", "setting": "[11]", "result": "~0.7", "unit": "µg/mL"}, {"measurement": "EC50 (read off the curve)", "setting": "[12]", "result": "~0.7", "unit": "µg/mL"}, {"measurement": "EC50 (read off the curve)", "setting": "[13]", "result": "~0.7", "unit": "µg/mL"}]}, {"binder": "B2", "values": [{"measurement": "EC50", "setting": "[5]", "result": 1.8, "unit": "µg/mL"}]}]}
